Results as given in patent publication US20140335077A1, “Compositions and Methods for the Treatment of Cancer Using IGF-IR Antagonists and MAPK/ERK Inhibitors” (priority 2013, published 2014).

What was measured:
IGF-1R [1] = target: T1, IGF-1R (Mus musculus, UniProt Q60751); experiment: IGF-1R degradation in MEF cells (β-arrestin knockouts, Δ1245 IGF-1R), WB; assay type: cell-based; settings: 24 h
T1 construct: MEF cells expressing full length, wild type IGF-1R; endogenous in cells; host or cells: MEF, and MEF knockout for β-arrestin1, β-arrestin2 or both
Procedure: (§1) Protein lysates were analyzed by WB for IGF-1R and GAPDH as a loading control. […] Data correspond to the mean±SEM from three independent experiments. (B,D) Cell viability of the CP-treated cells for 48 h, in the absence (SFM) or presence of serum, was evaluated by PrestoBlue reagent. […] Data correspond to the mean±SEM from three independent experiments.
(§2) Appropriate primary antibody was incubated overnight at 4° C.

IGF-1R [2] = experiment: as above; assay type: cell-based, mouse; settings: R− MEF expressing Δ1245 IGF-1R; over 48 h
Procedure: as §1, §2

[3] = system: IGF-1R, AKT and ERK phosphorylation; experiment: IGF-1R signaling activation in ES cell lines (WB for P-IGF-1R, P-AKT, P-ERK); assay type: cell-based; settings: serum starved ES cells

T1 sequence (Q60751 31-737 limits assumed): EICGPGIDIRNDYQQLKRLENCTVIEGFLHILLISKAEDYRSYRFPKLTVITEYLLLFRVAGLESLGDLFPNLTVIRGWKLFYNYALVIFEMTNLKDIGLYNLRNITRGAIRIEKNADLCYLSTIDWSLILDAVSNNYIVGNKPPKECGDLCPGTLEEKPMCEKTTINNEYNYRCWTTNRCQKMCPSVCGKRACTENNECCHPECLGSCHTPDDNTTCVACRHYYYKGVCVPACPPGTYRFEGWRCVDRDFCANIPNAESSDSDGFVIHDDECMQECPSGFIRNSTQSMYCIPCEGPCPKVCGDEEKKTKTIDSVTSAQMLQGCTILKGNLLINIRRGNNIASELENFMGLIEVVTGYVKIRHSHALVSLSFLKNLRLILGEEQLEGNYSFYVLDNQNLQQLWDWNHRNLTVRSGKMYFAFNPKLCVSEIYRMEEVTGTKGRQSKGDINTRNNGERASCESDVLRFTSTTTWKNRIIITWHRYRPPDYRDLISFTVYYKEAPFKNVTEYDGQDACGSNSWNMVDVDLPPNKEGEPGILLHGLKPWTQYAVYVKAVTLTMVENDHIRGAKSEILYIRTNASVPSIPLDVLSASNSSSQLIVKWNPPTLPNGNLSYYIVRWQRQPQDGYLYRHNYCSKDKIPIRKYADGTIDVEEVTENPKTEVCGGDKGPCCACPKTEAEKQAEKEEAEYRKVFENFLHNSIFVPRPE
T1 sequence (Q60751 742-1373 limits assumed): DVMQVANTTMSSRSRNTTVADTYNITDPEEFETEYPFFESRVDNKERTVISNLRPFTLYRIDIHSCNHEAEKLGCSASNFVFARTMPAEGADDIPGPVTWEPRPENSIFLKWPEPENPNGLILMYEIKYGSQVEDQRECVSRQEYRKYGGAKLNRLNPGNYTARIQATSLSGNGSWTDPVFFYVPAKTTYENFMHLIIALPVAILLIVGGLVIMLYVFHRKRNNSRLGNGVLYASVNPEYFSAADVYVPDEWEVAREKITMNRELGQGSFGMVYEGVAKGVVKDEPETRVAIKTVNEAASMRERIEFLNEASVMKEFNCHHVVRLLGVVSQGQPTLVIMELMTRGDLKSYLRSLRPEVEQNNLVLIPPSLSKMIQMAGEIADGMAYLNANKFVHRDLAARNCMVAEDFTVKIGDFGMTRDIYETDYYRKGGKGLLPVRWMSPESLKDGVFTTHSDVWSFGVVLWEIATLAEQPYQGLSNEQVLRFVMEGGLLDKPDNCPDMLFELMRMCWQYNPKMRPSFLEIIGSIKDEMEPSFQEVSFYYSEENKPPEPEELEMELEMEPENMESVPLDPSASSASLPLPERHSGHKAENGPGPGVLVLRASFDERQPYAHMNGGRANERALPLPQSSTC

**Q.** How did the IGF-1R degradation (IGF-1R [1]; MEF without β-arr1 (β1KO or β1/2 KO)) turn out when “IGF-1: classical ligand of IGF-1R, used at 50 ng/ml for stimulation” was run?
**A.** Its IGF-1R degradation is “almost completely abolished”.

**Q.** And the IGF-1R degradation (IGF-1R [1]; control MEF and β2KO cells (expressing β-arr1))?
**A.** The IGF-1R degradation was “drastically downregulated the receptor”.

**Q.** And the “Degradation of truncated IGF-1R (Δ1245)” value (IGF-1R [2])?
**A.** The value was “resistant”.

**Q.** What about the “Time to phosphorylation of the IGF-1R activation loop” value [3] of the same substance?
**A.** Its value is ≤ 2 min.
